In patent US9345765B2, “Diagnostic and therapeutic uses of moesin fragments” (SHANGHAI KEXIN BIOTECH CO., LTD., priority 2010, dated 2016):

Legend:
Type in all cases: cell-based, human
[1] = system: platelets; test: Inhibition of platelet activation induced by activators: CD62P and CD63 expression by flow cytometry; set-up: key to CD62P FD (Mnx) / CD63 FD (Mnx): mean fluorescence density by flow cytometry; details: for effect on platelet activation induced by ADP (in words): activator ADP; for effect on platelet activation induced by the antibody against the N-terminal FERM domain of moesin (in words): activator anti-moesin N-terminal domain antibody; for CD62P FD (Mnx) / CD63 FD (Mnx): inhibitor first, n = 12
Protocol: This experiment is performed to assess the blocking effect of various inhibitors (i.e. test agents) on the platelet activation induced by various different activators.
The plasma samples were collected from 12 healthy individuals, and cultured in the presence of an inhibitor as described in Table 2 below for several minutes (e.g. 5 mins), and thereafter an activator of platelet activation was added therein and the plasma samples were further cultured for another several minutes (e.g. 5 mins). The culture conditions were the same as Example 2. After that, CD62P monoclonal antibody and CD63 monoclonal antibody labeled with FITC were used to detect the expressed CD62P and CD63 in the plasma samples, and the fluorescence density of the plasma samples was detected using flow cytometry of Beckman Coulter EPICS-XL. The expression levels of the CD62P and CD63 were represented by the average value of fluorescence density detected. A control group using 0.01M PBS instead of any inhibitor was also tested.
The peptide RGDS is known as an inhibitor of platelet activation that inhibits platelet's activation by competing with platelet activator combined-1 (PAC-1) to bind to glycoprotein (GP) IIb/IIIa complex on the surface of platelets. The RGDS was prepared according to a conventional peptide synthesis in solid phase and used herein with a concentration of 10 mg/ml in 0.01 M PBS. The moesin fragments and anti-moesin antibodies used in this experiment were prepared according to Example 1. As used in this experiment, the anti-moesin N-terminal domain antibody has a concentration of 20 μg/ml in 0.01M PBS, the N-terminal FERM domain has a concentration of 2 mM in 0.01M PBS, and the anti-moesin C-terminal domain has a concentration of 20 μg/ml in 0.01M PBS. The ADP used herein has a concentration of 5 μM in 0.01M PBS. The results are listed in Table 2 below and also illustrated in FIG. 7.

[2] = system: platelets; test: Platelet aggregation assay (Born method, transparency)
Protocol: Plasma samples were collected from 6 healthy individuals and mixed with 3.8% sodium citrate in the ratio of 9:1 (v/v) to prevent solidification of the plasma. The mixed plasma samples were then centrifuged to obtain a portion of platelet-rich plasma (“PRP”) and another portion of platelet-poor plasma (“PPP”). The PRP was diluted with PPP to obtain a plasma sample having a platelet count of 5×10^8 per milliliter as a testing plasma sample for later use.
The testing plasma sample was incubated in the presence of an inhibitor of platelet activation as described in Table 3 below for several minutes, and thereafter an activator of platelet activation as described in Table 3 below was added therein and the plasma sample was further incubated for another several minutes to obtain a final mixture. The final mixture was detected for blood aggregation by measuring the transparency of the sample using TYXN-91 Intelligent Blood Agglutometer according to the Born methods. The transparency of PRP in the presence of either ADP or antibody against the N-terminal domain of moesin was also detected as positive controls. A negative control containing no inhibitor was also tested.
The testing results which was shown as platelet aggregation rate (“PAR”) and platelet aggregation inhibition rate (“PAIR”) are listed in Table 3 below.
PAR is calculated by, 1) subtracting PPP's transparency with the testing group's transparency, and 2) dividing the result of step 1) by PPP's transparency and then multiplying 100%. PAIR is calculated by, 1) subtracting the PRP group's PAR with the testing group's PAR, and 2) dividing the result of step 1) by the PRP group's PAR and then multiplying 100%.
The RGDS was prepared according to a conventional peptide synthesis in solid phase and used herein with a concentration of 10 ug/ml in 0.01M PBS. The moesin fragments and anti-moesin antibodies used in this experiment were prepared according to Example 1. The concentration regarding an inhibitor as described in Table 3 below is a final concentration of the inhibitor in the testing plasma sample, and the concentration regarding the activator of ADP and the antibody against N-terminal FERM domain of moesin also refers to a final concentration in the testing plasma sample.

[3] = system: platelets; test: Stimulation of platelet activation: CD62P and CD63 expression in plasma by flow cytometry; details: for CD62P FD (Mnx) / CD63 FD (Mnx): agent alone in plasma of 12 healthy individuals, final conc. ADP 5 μM, antibody 20 μg/ml, FERM domain 2 mM
Protocol: The expressions of CD62P and CD63 are associated with platelet activation. Therefore, these two proteins can be used as indicators to characterize the profile of platelet activation. This experiment was performed in vitro to assess stimulation of platelet activation in the presence of various agents by detecting the expression levels of CD62P and CD63 using CD62P monoclonal antibody and CD63 monoclonal antibody.
Plasma samples were collected from 12 healthy individuals, and cultured at room temperature in the presence of various agents as described in Table 1 below for several minutes (e.g. 5 mins). The culture conditions were selected so that the platelets can be fully activated within about 10 mins. After that, CD62P monoclonal antibody and CD63 monoclonal antibody labeled with fluorescein isothiocyanate (FITC) were used to detect the expressed CD62P and CD63 in the plasma samples, and the fluorescence density (“FD”) of the plasma samples was detected using flow cytometry of Beckman Coulter EPICS-XL. The expression levels of the CD62P and CD63 were represented by the average value of fluorescence density detected.
The agents being tested in this assay are listed in Table 1 below, including ADP which is known as an agent stimulating platelet activation (Group 1), the anti-moesin N-terminal domain antibody (Group 2) and the N-terminal FERM domain of moesin (Group 3) which were both prepared according to Example 1.
The concentration of an agent listed in Table 1 is a final concentration of the agent in the plasma sample. A plasma sample without any of the test agents was tested as a control group. The results are listed in Table 1 below and also illustrated in FIG. 6.

[4] = then activator ADP (50 μl, 5 μM)
[5] = then activator Anti-moesin N-terminal domain (50 μl, 20 μg/ml)
[6] = activator ADP (5 μM), inhibitor at final concentration of Table 3, n = 6
[7] = activator Anti-moesin N-terminal domain antibody (2 μg/mL), n = 6

RGDS [solid-phase synthesis, reference compound]
effect on platelet activation induced by ADP (in words) [1]: can substantially inhibit | effect on platelet activation induced by the antibody against the N-terminal FERM domain of moesin (in words) [1]: no blocking effect | CD62P FD (Mnx) [1, 4]: 7.04 | CD63 FD (Mnx) [1, 4]: 5.61 | CD62P FD (Mnx) [1, 5]: 17.98 | CD63 FD (Mnx) [1, 5]: 20.13 | PAR (%) platelet aggregation rate [2, 6]: 11.12% | PAIR platelet aggregation inhibition rate [2, 7]: 9.77% | PAR (%) platelet aggregation rate [2, 7]: 55.55% | inhibition of platelet aggregation induced by the antibody against the N-terminal FERM domain of moesin (in words) ([2]; activator anti-moesin N-terminal domain antibody): much less inhibiting effect

Nc1ncnc2c1ncn2[C@@H]1O[C@H](COP(=O)(O)OP(=O)(O)O)[C@@H](O)[C@H]1O [ADP, reference compound]
CD62P FD (Mnx) [3]: 12.88 | CD63 FD (Mnx) [3]: 11.31 | PAR (%) of PRP with the activator alone ([2]; PRP positive control, no inhibitor, ADP 5 μM or antibody 2 μg/mL, n = 6): 45.62%

B1: N-terminal FERM domain of moesin: N-terminal FERM domain of human moesin, amino acid residues 1-297 (SEQ ID NO:2), expressed in E. coli BL21(DE3) (protein)
chain: MPKTISVRVTTMDAELEFAIQPNTTGKQLFDQVVKTIGLREVWFFGLQYQDTKGFSTWLKLNKKVTAQDVRKESPLLFKFRAKFYPEDVSEELIQDITQRLFFLQVKEGILNDDIYCPPETAVLLASYAVQSKYGDFNKEVHKSGYLAGDKLLPQRVLEQHKLNKDQWEERIQVWHEEHRGMLREDAVLEYLKIAQDLEMYGVNYFSIKNKKGSELWLGVDALGLNIYEQNDRLTPKIGFPWSEIRNISFNDKKFVIKPIDKKAPDFVFYAPRLRINKRILALCMGNHELYMRRRKP
modifications: N-terminal FERM domain of human moesin protein
CD62P FD (Mnx) [3]: 2.99 | CD63 FD (Mnx) [3]: 1.55 | stimulation of platelet activation (in words) ([3]; agent alone, CD62P and CD63 expression vs control group): does not stimulate platelet activation | effect on platelet activation induced by ADP (in words) [1]: no significant effect | effect on platelet activation induced by the antibody against the N-terminal FERM domain of moesin (in words) [1]: can significantly block | CD62P FD (Mnx) [1, 4]: 11.38 | CD63 FD (Mnx) [1, 4]: 7.23 | CD62P FD (Mnx) [1, 5]: 5.79 | CD63 FD (Mnx) [1, 5]: 6.30 | inhibition of platelet aggregation induced by ADP (in words) ([2]; activator ADP): much less | PAIR platelet aggregation inhibition rate [2, 6]: 39.61% | PAR (%) platelet aggregation rate [2, 6]: 27.55% | PAIR platelet aggregation inhibition rate [2, 7]: approximately 90% | PAR (%) platelet aggregation rate [2, 7]: 6.03% | PAIR platelet aggregation inhibition rate ([2]; activator Anti-moesin N-terminal domain antibody (2 μg/mL), n = 6, listed as N-terminal domain): 90.21%
